According to patent publication US20210070876A1 (LES LABORATOIRES SERVIER, published 2021):

Legend:
[1] = target: T1, His-tagged human CD73 ECD (human, UniProt P21589 27-549); assay: SEC-MALS, mAb:CD73 0.5:1
T1 construct: runs as a homodimer of about 124-125 kDa in SEC-MALS; also called CD73-His; CD73-His ECD antigen
T1 sequence: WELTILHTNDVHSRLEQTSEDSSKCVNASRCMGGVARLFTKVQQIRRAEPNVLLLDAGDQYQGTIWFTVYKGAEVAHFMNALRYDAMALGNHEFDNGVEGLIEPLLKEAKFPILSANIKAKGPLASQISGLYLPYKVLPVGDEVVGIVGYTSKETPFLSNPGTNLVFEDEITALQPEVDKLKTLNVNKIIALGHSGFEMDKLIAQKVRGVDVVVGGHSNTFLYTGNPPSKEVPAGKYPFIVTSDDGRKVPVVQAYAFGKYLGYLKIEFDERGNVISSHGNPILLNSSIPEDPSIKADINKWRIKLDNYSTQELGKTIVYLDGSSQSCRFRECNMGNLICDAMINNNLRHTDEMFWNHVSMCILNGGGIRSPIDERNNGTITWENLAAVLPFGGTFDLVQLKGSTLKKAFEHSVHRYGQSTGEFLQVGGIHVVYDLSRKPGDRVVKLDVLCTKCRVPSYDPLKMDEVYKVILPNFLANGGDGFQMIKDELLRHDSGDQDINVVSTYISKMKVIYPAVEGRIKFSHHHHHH
Procedure: Anti-CD73 antibodies and His-tagged CD73 were analyzed in different ratios as well as individually to analyze the size of complexes formed between CD73 homodimer and anti-CD73 antibodies. Samples were prepared by mixing […] of CD73-His with 900, 450, 90 or 0 μmol of antibody diluted into PBS, pH 7.4. Samples were incubated for 30 min at room temperature followed by separation using a UHPLC UltiMate 3000 (Thermo Scientific) and SEC X-Bridge column (Waters) at a flow rate of 1.2 mL/min. Sample running buffer was 0.01 M Citrate, 250 mM L-Arginine.HCl, pH 6.0. Following HPLC separation, all samples were analyzed using a MiniDAWN TREOS MALS detector (Wyatt) and Optilab T-rEX refractive index detector (Wyatt). Data plots were generated using Graph Pad Prism.

[2] = target: T2, His-tagged cynomolgus CD73 ECD (cynomolgus monkey (Macaca fascicularis)); assay: SPR, mAb captured, His-tagged CD73 ECD injected
T2 chain: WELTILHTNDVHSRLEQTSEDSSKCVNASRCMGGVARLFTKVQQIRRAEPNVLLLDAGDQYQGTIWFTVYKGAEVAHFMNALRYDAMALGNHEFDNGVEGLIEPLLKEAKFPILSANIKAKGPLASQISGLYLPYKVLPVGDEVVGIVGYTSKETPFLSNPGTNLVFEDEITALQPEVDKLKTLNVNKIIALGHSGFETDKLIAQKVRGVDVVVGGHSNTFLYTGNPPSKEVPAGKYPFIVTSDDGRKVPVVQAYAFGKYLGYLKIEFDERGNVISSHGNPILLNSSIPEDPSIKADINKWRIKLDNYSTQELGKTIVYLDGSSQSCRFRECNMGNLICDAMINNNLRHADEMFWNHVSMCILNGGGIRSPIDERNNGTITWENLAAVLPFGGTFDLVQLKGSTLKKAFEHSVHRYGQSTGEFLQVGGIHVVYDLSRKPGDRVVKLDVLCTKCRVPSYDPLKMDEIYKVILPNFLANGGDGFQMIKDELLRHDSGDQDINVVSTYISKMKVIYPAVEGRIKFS
Procedure: Kinetic binding analysis of anti-CD73 mAbs and Fab fragments was performed by Surface Plasmon Resonance (SPR), using a Continuous Flow Microspotter (CFM, Wasatch Microfluidics, Salt Lake City, US) combined with an IBIS MX96 SPR instrument (IBIS Technologies, The Netherlands). CD73 cDNAs coding for the extracellular domains of human and cynomolgus CD73 were synthesized and each cloned into a vector containing a CMV promoter and either a C-terminal 6× histidine sequence (SEQ ID NO: 45) for His-tagged CD73 ECD, or a human IgG1 Fc sequence (AA P101-K330), resulting in fusion of IgG1 Fc C-terminally to the cloned CD73 ECD. The His-tagged and Fc-fusion constructs were transiently expressed using an ExpiCHO™ expression system and purified either by standard Ni-NTA chromatography or standard MabSelect™ SuRe™ procedures, respectively. Anti-CD73 Fab fragments were generated by digesting full-length IgG1 antibodies with GingisKHAN enzyme, using a kit provided by Genovis (Sweden). Affinities of Fab fragments were measured by capturing Fc-tagged antigens on a G-a-hu-IgG Fc SensEye® for 15 minutes using the CFM. After spotting, the SensEye® was positioned in the IBIS MX96 biosensor and immobilized antigens were fixed by SensEye FixIt kit. Kinetic analysis was performed by injecting monomeric Fab fragments at increasing concentrations from 0.8 nM to 300 nM. After each cycle of Fab fragment injection, the surface was regenerated by 10 mM glycine pH 3, 10% glycerol. Fab association was performed for 15 minutes and antigen dissociation was performed for 15 minutes. Affinities of full-length monoclonal antibodies (mAbs) were measured by capturing mAbs on a G-a-hu-IgG Fc SensEye® (Ssens BV, The Netherlands) for 15 minutes using a Continuous Flow Microspotter (CFM, Wasatch Microfluidics, Salt Lake City, US). After spotting, the SensEye was docked in the IBIS MX96 and spotted mAbs were fixed by SensEye FixIt kit (Ssens BV, The Netherlands). Kinetic analysis was performed by applying a kinetic titration series injecting increasing concentrations of His-tagged antigens from 0.16 nM to 10 nM as 2-fold dilutions. The surface was regenerated before the next cycle of cynomolgus antigen injections by 100 mM H₃PO₄, pH 3. MAb association was performed for 15 minutes and antigen dissociation was performed for 45 minutes.

mouse CD73 = target: T3, mouse CD73 (mouse, UniProt Q61503 29-549, limits assumed); assay: not described (statement in the methods of Example 22)
T3 construct: Only named in a sentence on cross-reactivity
T3 sequence (looked up): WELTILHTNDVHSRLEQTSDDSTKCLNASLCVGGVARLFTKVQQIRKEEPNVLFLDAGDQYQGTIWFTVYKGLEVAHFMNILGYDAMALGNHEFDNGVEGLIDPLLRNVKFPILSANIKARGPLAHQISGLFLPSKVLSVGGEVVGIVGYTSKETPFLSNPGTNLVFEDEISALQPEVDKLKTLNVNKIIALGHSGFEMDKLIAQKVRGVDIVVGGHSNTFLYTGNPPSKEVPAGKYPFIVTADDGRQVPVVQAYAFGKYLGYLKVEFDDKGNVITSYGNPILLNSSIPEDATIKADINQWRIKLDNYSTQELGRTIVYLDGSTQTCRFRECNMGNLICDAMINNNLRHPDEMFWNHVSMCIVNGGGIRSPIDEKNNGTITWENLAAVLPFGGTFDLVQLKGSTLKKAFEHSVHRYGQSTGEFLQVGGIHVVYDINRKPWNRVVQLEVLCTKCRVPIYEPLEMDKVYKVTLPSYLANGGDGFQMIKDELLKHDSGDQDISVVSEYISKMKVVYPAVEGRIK

B1: antibody 21127 (antibody, human IgG1, kappa, L234A L235A, V domains shown)
VH: EVQLVESGGGLVQPGRSLRLSCAASGFTFDDFAMHWVRQAPGKGLEWVSGISWNSGNIGYADSVKGRFTISRDNAKNSLYLQMNSLRAEDTALYYCAKDKSGSPYYYYGMDVWGQGTMVTVSS
VL: DIQMTQSPSSVSASVGDRVTITCRATQGISRRLAWYQQKPGKAPKLLIYAASSLQSGVPSRFSGSGSGTDFTLTISSLQPEDFATYYCQQANSFPLTFGGGTKVEIKR
notes: Fully human IgG1-LALA (L234A/L235A), kappa
Question: What does the source list for B1?
Answer: molecular mass of complex, Peak 2 (MW, kDa) [1]: 277 kDa; Kd [2]: 0.24 nM; binding result (mouse CD73): no binding
